T1: RecU D88N D88N (Bacillus subtilis) (UniProt P39792)
T1 sequence: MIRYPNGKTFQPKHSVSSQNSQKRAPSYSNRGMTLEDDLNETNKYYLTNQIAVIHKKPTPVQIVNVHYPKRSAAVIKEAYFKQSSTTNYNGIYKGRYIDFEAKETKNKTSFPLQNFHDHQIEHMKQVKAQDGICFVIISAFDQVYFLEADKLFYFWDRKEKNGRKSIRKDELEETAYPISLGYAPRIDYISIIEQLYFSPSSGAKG

T2: RecU D88N (Bacillus subtilis, UniProt P39792 1-206, D88N)
T2 sequence: T1 sequence

B1: RecU D88N, catalytically inactive mutant of the Holliday junction resolving enzyme RecU from Bacillus subtilis (enzyme, UniProt P39792 1-206, looked up)
chain: T1 sequence
notes: the N-terminal region (residues 1-33), the stalk (56-89) and the cap (34-55 and 90-199) are seen in the structure
B2: 12 bp palindromic duplex (dsDNA)
DNA 1: ACGCAATTGCGT
DNA 2: ACGCAATTGCGT

Key:
[1] = target: T1, RecU D88N D88N (Bacillus subtilis); test: thermofluor; conditions: 1:1 molar ratio; Thermofluor: 100 mM MES pH 6.5, 5 ug RecU D88N per well, DNA 1:1 molar, Sypro orange, 25-100 C in 1 C steps; crystals: 0.1 M BICINE pH 9, 10% PEG 6000, 17 C …
[2] = target: the molecule itself; test: crystal structure; RecU D88N mixed with 12 bp palindromic DNA at 1:1.25 molar ratio; crystals in 0.1 M BICINE pH 9, 10% PEG 6000, 17°C; 3.2 Å, space group R32, four RecU chains in the asymmetric unit
RecU D88N = target: T2, RecU D88N; test: X-ray crystallography (3.2 A); 0.1 M BICINE pH 9, 10% PEG 6000; Thermofluor: 100 mM MES pH 6.5, 5 ug RecU D88N per well, DNA 1:1 molar, Sypro orange, 25-100 C in 1 C steps; crystals: 0.1 M BICINE pH 9, 10% PEG 6000, 17 C, protein:DNA 1:1.25; conditions: protein: recombinant; chain copies: 2; blunt; self-complementary, 2 strand copies

Molecule | binding signal [1] | further results
HJ 12 bp (HJ24?) | 10.1 delta Tm, C | 
HJ 11 bp | 8.2 delta Tm, C | 
HJ 10 bp | 6.7 delta Tm, C | 
B1 |  | binding result [2]: binds
B2 |  | binding result (RecU D88N): binds

Source: PMC5314769, “Structural insights into dynamics of RecU–HJ complex formation elucidates key role of NTR and stalk region toward formation of reactive state” (Nucleic Acids Research, 2016)
